To fix the notation:
B2: Stg_CT WT (domain or fragment, mouse, UniProt O88602 203-323, looked up)
chain: DRHKQLRATARATDYLQASAITRIPSYRYRYQRRSRSSSRSTEPSHSRDASPVGVKGFNTLPSTEISMYTLSRDPLKAATTPTATYNSDRDNSFLQVHNCIQKDSKDSLHANTANRRTTPV

In the experiment “Stg_CT WT” the target is B2. Kind of experiment: ITC. Background: Isothermal titration calorimetry measures the heat released or taken up as one component is titrated into another.
For the next experiment, the target named is PSD-95 PSG (UniProt P78352-1 309-724). Nature of the experiment: ITC.
The target in the next experiment is PSD-95 NPDZ12 (UniProt P78352-1 1-247). Kind of experiment: NMR titration.

B1: PSD-95 PDZ2 (domain or fragment, UniProt P78352-1 155-247, looked up)
chain: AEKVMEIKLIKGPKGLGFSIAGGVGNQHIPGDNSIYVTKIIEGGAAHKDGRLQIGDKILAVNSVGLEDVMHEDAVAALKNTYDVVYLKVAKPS
Take B1: the binding result with Stg_CT WT is recorded as “binds”. The term Kd denotes the equilibrium constant for the complex coming apart. Molecule B2 showed a Kd with PSD-95 PSG of approximately 5.3 µM.

B3: Stg_CT Δ4 (domain or fragment, mouse, UniProt O88602 203-319, looked up)
chain: DRHKQLRATARATDYLQASAITRIPSYRYRYQRRSRSSSRSTEPSHSRDASPVGVKGFNTLPSTEISMYTLSRDPLKAATTPTATYNSDRDNSFLQVHNCIQKDSKDSLHANTANRR
For B3, the binding result in the experiment with PSD-95 NPDZ12 is “binds”.

The record behind these values is PMC6842113 (Neuron, 2019).
